According to patent US20180134786A1 (TOHOKU UNIVERSITY, published 2018):

Key:
[1] = target: T1, human podocalyxin expressed on cancer cells (human, UniProt O00592 23-558); experiment: immunohistochemistry on breast cancer tissue array, 5 µg/mL
T1 construct: Podocalyxin on cancer cells; also called hPODXL; PODXL
T1 sequence: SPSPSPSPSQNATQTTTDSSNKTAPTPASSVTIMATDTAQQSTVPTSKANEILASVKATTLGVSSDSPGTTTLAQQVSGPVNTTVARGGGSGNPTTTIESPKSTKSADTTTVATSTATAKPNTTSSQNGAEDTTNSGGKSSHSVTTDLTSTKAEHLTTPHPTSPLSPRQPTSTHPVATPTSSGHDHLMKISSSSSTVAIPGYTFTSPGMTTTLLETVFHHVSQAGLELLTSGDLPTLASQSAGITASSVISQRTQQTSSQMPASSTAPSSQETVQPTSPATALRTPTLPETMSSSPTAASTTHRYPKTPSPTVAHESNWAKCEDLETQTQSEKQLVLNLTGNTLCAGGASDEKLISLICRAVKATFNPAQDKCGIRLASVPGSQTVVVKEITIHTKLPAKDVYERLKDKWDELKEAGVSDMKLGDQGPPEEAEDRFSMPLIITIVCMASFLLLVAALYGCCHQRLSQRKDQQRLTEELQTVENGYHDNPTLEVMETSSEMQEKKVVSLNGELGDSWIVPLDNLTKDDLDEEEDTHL
Procedure: Various paraffin sections were deparaffined in xylene and ethanol solutions. The resulting sections were subjected to antigen activation in an autoclave by using a citrate buffer having pH 6.0 (product of Dako). Endogenous peroxidase was inactivated with 3% H₂O₂. After blocking with SuperBlock (product of Thermo Fisher) at room temperature for 10 minutes, the primary antibody was reacted at a concentration of from 5 to 10 μg/mL at room temperature for one hour. After amplification using a LSAB kit (product of Dako), LSAB2 (product of Dako), or Envision+ (product of Dako), color was developed using DAB (product of Dako).
Podocalyxin is known to be expressed highly in breast cancer. PcMab-6 and an anti-podocalyxin antibody (polyclonal antibody: product of R&D) were therefore reacted with a breast cancer tissue array (product of US Biomax) at a concentration of 5 μg/mL. […] Similarly, a difference in reactivity with breast cancer between PcMab-6 and PcMab-47 was investigated. […] It has therefore been confirmed that also in Immunohistochemistry, PcMab-6 is CasMab.

[2] = target: T1, human podocalyxin expressed on cancer …; experiment: flow cytometry on LN229/hPODXL, CHO culture supernatant
Procedure: A CRISPR/Cas plasmid of a glycosyltransferase (FUT-8) that transfers a core fucose was introduced into CHO-s cells (product of Thermo Scientific) and CHO-s-fut8-knock out cells were established. pCAG-hIgG1hG2b/PcMab-6HVH (G418)/pCAG-hIgCK/PcMab-6LVL (zeocin) (each 2.5 μg) or pCAG-hIgG1hG2b/PcMab-47HVH (G418)/pCAG-hIgCK/PcMab-47LVL (zeocin) (each 2.5 μg) were mixed and transfected into 1×10⁵ CHO-s/fut8-knock out cells (corresponding to 1 well of a 6-well plate) by the method of Lipofectamin LTX. After 24 hours, selection of transfected cells was started on a medium containing 500 μg/mL of Zeocin and 1 mg/mL of G418. The reactivity of the culture supernatant of the selected cells with the LN229 cells having therein forcibly expressed podocalyxin (LN229/hPODXL) was confirmed by flow cytometry.

B1: PcMab-47 (antibody, mouse IgG1, kappa)
heavy: QVQLQQSAAELARPGASVKMSCKASGYTFTNYTIHWVKQRPGQGLEWIGFINPTSGYSDFNQKFKAKTTLTADKSSSTAHMQLTSLTSEDSAVYYCARLFAPAYWGQGTLVTVSAAKTTPPSVYPLAPGSAAQTNSMVTLGCLVKGYFPEPVTVTWNSGSLSSGVHTFPAVLQSDLYTLSSSVTVPSSTWPSETVTCNVAHPASSTKVDKKIVPRDCGCKPCICTVPEVSSVFIFPPKPKDVLTITLTPKVTCVVVDISKDDPEVQFSWFVDDVEVHTAQTQPREEQFNSTFRSVSELPIMHQDWLNGKEFKCRVNSAAFPAPIEKTISKTKGRPKAPQVYTIPPPKEQMAKDKVSLTCMITDFFPEDITVEWQWNGQPAENYKNTQPIMDTDGSYFVYSKLNVQKSNWEAGNTFTCSVLHEGLHNHHTEKSLSHSPGK
light: QIVLTQSPAIMSASLGERVTMYCTASSSVSSSYLHWYQQKPGSSPKLWIYGTSNLASGVPARFSGSGSGTSYSLTISSMEAEDAATYYCHQYHRPPLTFGAGTKLELKRADAAPTVSIFPPSSEQLTSGGASVVCFLNNFYPKDINVKWKIDGSERQNGVLNSWTDQDSKDSTYSMSSTLTLTKDEYERHNSYTCEATHKTSTSPIVKSFNRNEC
notes: Mouse monoclonal antibody; also called cancer-nonspecific anti-podocalyxin antibody
[1]
  binding result: binds

B2: mouse-human chimeric PcMab-47 antibody (chPcMab-47) (antibody)
heavy: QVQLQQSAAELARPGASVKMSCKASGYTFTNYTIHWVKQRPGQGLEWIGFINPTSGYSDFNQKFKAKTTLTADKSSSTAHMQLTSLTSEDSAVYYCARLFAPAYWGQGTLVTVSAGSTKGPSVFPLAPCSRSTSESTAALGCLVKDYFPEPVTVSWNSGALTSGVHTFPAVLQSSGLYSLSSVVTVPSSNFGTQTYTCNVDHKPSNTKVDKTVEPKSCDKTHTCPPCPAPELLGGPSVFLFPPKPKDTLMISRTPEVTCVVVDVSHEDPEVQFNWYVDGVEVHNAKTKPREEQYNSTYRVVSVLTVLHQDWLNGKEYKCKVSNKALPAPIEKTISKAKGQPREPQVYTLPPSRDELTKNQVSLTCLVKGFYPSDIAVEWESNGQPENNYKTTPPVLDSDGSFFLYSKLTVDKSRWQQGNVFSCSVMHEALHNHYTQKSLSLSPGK
light: QIVLTQSPAIMSASLGERVTMYCTASSSVSSSYLHWYQQKPGSSPKLWIYGTSNLASGVPARFSGSGSGTSYSLTISSMEAEDAATYYCHQYHRPPLTFGAGTKLELKRTSTVAAPSVFIFPPSDEQLKSGTASVVCLLNNFYPREAKVQWKVDNALQSGNSQESVTEQDSKDSTYSLSSTLTLSKADYEKHKVYACEVTHQGLSSPVTKSFNRGEC
notes: VH/VL of PcMab-47 with human IgG1 CH1-hinge-CH2-CH3 and human kappa CL, expressed in CHO cells; The entries may include the signal peptide; also called chPcMa47
[2]
  binding result: binds
